In patent publication US20240218057A1 (ROCKEFELLER UNIVERSITY, published 2024):

B1: C893 (antibody, V domains shown)
VH: EVQLVQSGAEVKKPGESLKISCKGSGYYFTRQWIGWVRQMPGKGLEWMGIIYPGDSDTRYSPSFQGQVTISADKSISTAYLQWSSLKASDTAMYYCARGGWDPAEYSSSGGGGLDAFDIWGQGTMVTVSS
VL: EIVLTQSPATLSLSPGERATLSCRASQSVSSYLAWYQQRPGRAPRLLIYDASNRATGIPGRFSGSGSGTDFSLTISSLEPEDFAVYYCQQRSSWPLTFGQGTRLEIK
notes: IgG; V domains only
B2: C888 (antibody, V domains shown)
VH: EVQLVESGGGLVQPGGSLRLSCAASGFTVSSNYMSWVRQAPGKGLEWVSVIYSGGSAYYADSVKGRFTISRDNSKNTLYLQMNSLRAEDTAVYYCARDLRDQDGYSYGAFDYWGQGTLVTVSS
VL: QSALTQPASVSGSPGQSITISCTGTSSDVGGYNYVSWYQQHPGKAPKLMIYDVSNRPSGVSNRFSGSKSGNTASLTISGLQAEDEADYYCSSYTSSSSWVFGGGTKLTVL
notes: IgG; V domains only
B3: C900 (antibody, V domains shown)
VH: QVQLQESGPGLVKPSGTLSLTCTVSGGSINSRNWWSWVRQPPGKGLEWIGEIFHSGSTNYNPSLESRVAISIDKSHNHFSLKLTSVTAADTAVYYCARANGILDFWGQGTLVTVSS
VL: DIQMTQSPSSLSASVGDRVTITCRASQGISNSLAWYQLKPGKAPKLLLYAASTLESGVPSRFSGSGSGTNFTLTISSLQPEDFASYCCQHYYSSPRTFGQGTKVEI
notes: IgG; V domains only
B4: C887 (antibody, V domains shown)
VH: EVQLVESGGDLVQPGGSLRLSCAASGFTFTTYSMSWVRQAPGKGLEWISYINSGSANIHYADSVKGRFTVSRDNAKNSLYLQMNSLRDEDTAVYYCARGDCLSSSCYSLDYWGQGALVTVSS
VL: DIQMTQSPSSLSASVGDRVTITCRASQSITSYLSWYLQKPGEAPKLLIYAASILQSGVPSRFGGNGSGTDFTLTISSLQPEDFATFYCQQTYRSPLTFGGGTKVEIK
notes: IgG; V domains only
B5: C886 (antibody, V domains shown)
VH: EVQLVESGGDLVQPGGSLRLSCAASGFSVTTNAMAWVRQAPGKGLEWISYINIGSANIQYADSVKGRFTISRDNAKNSLYLQMNSLRDEDTAVYYCARGDCTSSSCYSLDYWGQGALVTVSS
VL: DIQMTQSPSSLSASVGDRVSITCRASQTINTHLSWYLQKPGEAPRLLVYAASTLHSGVPSRFSGSGSGTDFTLTISSLQPEDFATFYCQQTYRFPLTFGGGTKVEIK
notes: IgG; V domains only
B6: C897 (antibody, V domains shown)
VH: QVQLVESGGGVVQPGRSLRLSCAASGFIFSHYGMHWVRQAPGKGLEWVAVILYDGSDQYYADSVKGRFTISRDNSKNTLFLEMNSLRLEDTAVYYCAKGGGQYCSHGNCYLNYFDYWGQGALVTVSS
VL: DIQMTQSPSSLSASVGDRVTITCQASQDIRDNLNWYQQKPGKAPQLLIYDASNLQPGVPSRFSGSGSGTHFTFTISRLQPEDIATYFCQQYANLPTTFGPGTKVDIK
notes: IgG; V domains only
B7: C901 (antibody, V domains shown)
VH: QVQLVESGGGVVQPGRSLRIACGASGFTFSTYDMHWVRQAPVKGLEWVAVISRDGSGKFYADSVKGRFTISRDNSKKTLYLQMDSLRPEDTAMYYCARDFESRTWDPPKYYYALDVWGQGTTVTVSS
VL: DIQMTQSPSSLSASVGDRVTITCRASQSISTYLNWYQQKPGKAPSLLIYAASSLYSGVPSRFSGSGSGTDFSLTISSLQPEDFATYYCQQTYTTPTWTFGQGTKVEIK
notes: IgG; V domains only
B8: C896 (antibody, V domains shown)
VH: QVQLVESGGGVVQPGRSLKLSCAASGFTFKTYGMHWVRQAPGKGLEWVAVISYDGTNDYYADSVKGRFTVSRDNSKNTLYLQMNSPRTEDTAVYYCAKAGGPYYYDTSGSFWYFDYWGQGTLVTVSS
VL: DIQMTQSPSSLSASVGDRVTITCRASQTISSYLNWYQQKSGKAPELLVYDASNLESGVPSRFSGSGSGTDFTLTISSLQPEDFATYYCQQSYSFGPGTKVDIK
notes: IgG; V domains only
B9: C986 (antibody, V domains shown)
VH: EVQLVQSGAEVKKPGETLKISCKGSGDSFSNYWIGWVRQSPGKGLEWMAIVYPGDSDARYSPSFQGQVTISADKSVTTAYLKWSSLKASDTAIYYCVRGLPVDWYFDLWGRGTLVTVSS
VL: QSVLTQPPSVSGAPEQRVTISCTGSSSNIGAGHDVHWYQQLPGTAPKLLIYNNNNRPSGVPDRFSGSKSGASASLAISGLQAEDEAEYYCQSYDKSLSVLYVLGTGTKVTV
notes: IgG; V domains only
B10: C895 (antibody, V domains shown)
VH: QVQLVQSGAEVKKPGSSVKVSCKASGGTFTSYAFSWVRQAPGQGLEWMGGIIPIFGTTNYAQKFQGRVTITADESTSTAYMELSSLRSEDTAVYYCARPEGCGSRTSCTPGAYYYGMDVWGQGTTVTVSS
VL: EIVLTQSPATLSLSPGERATLSCRASQSVGSYLAWYQQKPGQAPRLLIYDASNRATGIPARFSGSGSGTDFTLTISSLEPEDFAFYFCQQRNSWPPEYSFGQGTKLEIK
notes: IgG; V domains only
B11: C952 (antibody, V domains shown)
VH: EVQLVQSGAEVKKPGESLTISCKDSGNSFTIYWIGWVRQMPGKGLEWMGMIYPGDSGTRYSPSFEGQVTISADESINTAYLQWRSLKASDTAMYYCVRGIAVDWYFDLWGRGTLVTVSS
VL: QSVLTQPPSVSGAPGQRVTISCTGSSSNIGAGFDVHWYQQLPGTAPKLLIYGNNNRPSGVPDRFSGSKSATSASLAITGLQAEDEADYYCQSSDSSLSGLYVFGTGTNVIV
notes: IgG; V domains only
B12: C878 (antibody, V domains shown)
VH: EVQLVESGGGLVQPGGSLRLSCSVSGFTFSNFAMHWVRQAPGKGLEFVSGVSSDGDITDYADSVKGRFTISRDNSKNTLYLQMSSLRPEDTAVYYCVKDKEHSTMVTIFDFWGQGTLVTVSS
VL: DIQMTQSPSSLSASVGDRVTITCRASQSISSFLNWYQQKPGKAPKLLIYAASSLQSGVPSRFSGRGSGADFTLTITSLQPEDFATYFCQQSYSSHLTFGPGTKVDIK
notes: IgG; V domains only
B13: C890 (antibody, V domains shown)
VH: QVQLVQSGAEVKKPGSSVKASCKASGGTFSTYTISWVRQAPGHGLEWMGRIIPIFGTTKYAQKFQGRVTITADESTTTAYLELSSLRSEDTAVYYCTINTQWDLVPRWGQGTLVTVSS
VL: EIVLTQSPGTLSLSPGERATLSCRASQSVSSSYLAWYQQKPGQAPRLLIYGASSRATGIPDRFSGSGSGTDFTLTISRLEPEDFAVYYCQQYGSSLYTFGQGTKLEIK
notes: IgG; V domains only
B14: C889 (antibody, V domains shown)
VH: EVQLVESGGGLVQPGGSLRLSCAVSGFTVSSNYMTWVRQAPGKGLEWVSLIYSGTSAFYADSVKGRFTISRDNSKNTLYLQMSSLRVNDTAIYYCARDLRKDDGYSYGAFDYWGQGTLVTVSS
VL: QSALTQPASVSGSPGQSITISCSGTSSDVGAHNYVSWYQQYPGKAPKLMIFDVTDRPSGVSNRFSGSKSGNTASLTISGLQAEDEADYYCTSYTTNRSWVFGGGTKVTVL
notes: IgG; V domains only
B15: C891 (antibody, V domains shown)
VH: EVQLVESGGGLVKPGGSLRLSCAVSGFTFSNVWMSWVRQAPGKGLEWVGRIKSKTDGGTTDYAAPVKGRFTISRDDSKNTLYLQMNSLKTEDTAVYYCTSQLWLRGPGDYWGQGTLVTVSS
VL: NFMLTQPHSVSESPGKTVTISCTGSSGSIASNYVQWYQQRPGSAPTTVIYEDNQRPSGVPDRFSGSIDSSSNSASLTISGLKTEDEADYYCQSYDSSLNWVFGGGTKLTVL
notes: IgG; V domains only
B16: C892 (antibody, V domains shown)
VH: EVQLVESGGGLVKPGGSLKVSCTASGFTFTDAWMSWVRQAPGKGLEWVGRIKSRAYGGTTDYGAPVQGRFTISRDDSINTLYLQMNSLTAEDTAVYYCTSQLWLRGPGDYWGQGTLVTVSS
VL: NFMLTQPHSVSESPGKTVTISCTGSSGSIASNYVHWYQQRPGGAPTTVIYEDNQRPSGVPDRFSGSIDISSNSASLTISGLKTEDEGDYYCQSYDSGVNWVFGGGTKLTVL
notes: IgG; V domains only
B17: C899 (antibody, V domains shown)
VH: EVQLVESGGGLVKPGGSLRLSCAASGFTFSNAWMSWVRQAPGKGLEWVGRIKSKTDAETTDYAAPVRGRFTISRDNSKNTLYLEMNSLKTEDTAVYYCTTDADYSDSSGYYVTYYFEYWGQGSLVTVSS
VL: QSALTQPRSVSGSPGQSVTISCTGSNSDVGGYNYVSWYQQHPGKAPKLVIYDVSLRPSGVPDRFSGSKSGITASLTISGLQPEDEAHYYCCSFAGTYTPWVFGGGTRLTVL
notes: IgG; V domains only
B18: C902 (antibody, V domains shown)
VH: EVQLVQSGAEVKKPGESLRISCKGSGYSFHTYWIHWVRQMPGKGLEWMGKIDPSDSYTNYSPSFQGHVTFSADRSISTAYLQWSSLKASDTATYYCARLSWSPPTRTTDEKNWFDPWGQGTLVTVSS
VL: DIQLTQSPSFLAASAGDRVTITCRASQGISSYLAWYQQKPGKAPKVLIYAASTLQSGVPSRFSGSGSGTEFTLTISSLQPEDCATYYCQQFNSDPLTFGGGTKVEIK
notes: IgG; V domains only
B19: C881 (antibody, V domains shown)
VH: EVQLVESGGGLIQPGGSLRLSCAVSGVAVSTNYMSWVRQAPGQGLEWVSTIYSGDTTYYSDSVKGRFTISRDNSKNTFYLQMNSLRVPDTAVYYCARLGGVFNGFNGSFDYWGQGTLVTVS
VL: QSALTQPASVSGSPGQSITISCIGTSSDFENYNLVSWYQQHPGKAPKVMIYEDTKRPSGVSNRFSGSKSANTASLTISGLQAEDEAEYYCCSYAGASTWVFGGGTRVTVV
notes: IgG; V domains only
B20: C876 (antibody, V domains shown)
VH: EVQLVESGGGLIQPGGSLRLSCAASEFVISRNYMSWVRQAPKKGLEWVSVLYSGGSTFYADSVKGRFTISRDDSRNMLYLQMNSLRAEDTAVYYCVRDFGEFYFDYWGQGVLVTVSS
VL: EIVMTQSPTTLSVSPGERATLSCRASQSLSSNLAWYQQKPGQAPRLLIFGVSTRATGIPARFSGSGSGTEFTLTISSLQSEDFAVYYCQQYYSGPRTFGQGTKVEIK
notes: IgG; V domains only
B21: C898 (antibody, V domains shown)
VH: QVQLVQSGAEVKKPGSSVKVSCKASGGPFSSYAFTWVRQAPGQGLEWMGGIIATFGTVNYAQKFQGRVTITADEFTSTVNMELSSLRSDDTAVYYCARRDCSTTSCYDEVLYRLVDWGQGTLVTVSS
VL: EIVLTQSPGTLSLSPGERATLSCRASQSVNSDYLAWYKQKPGQAPRLLIYGTSSRATGIPDRFSGSGSGTDFTLTISRLEPDDFAVYYCQQYGNSPRTFGQGTKVEIK
notes: IgG; V domains only
B22: C882 (antibody, V domains shown)
VH: QVQLVESGGGVVQPGRSLRLSCAASGFTFIRYNMHWVRQAPGKGLEWVAVIWYDGSNKYYADSVKGRFTISRDNSKNTLYLQMNSLRAEDTAVYYCARDPMIVVVEMDYWGQGTLVTVSS
VL: DVVMTQSPLSLPVTLGQPASISCNSSQSLVHTDGNTYLNWFQQRPGQSPRRLIYKVSNRDSGVPDRFSGSGSDTDFTLQISRVEADDVGVYYCMQGSHWPYTFGQGTKLEIK
notes: IgG; V domains only

Biological target: T1, SARS-COV-2 RBD (SARS-COV-2, UniProt P0DTC2 319-539)
T1 construct: also called WT RBD
Assay: ELISA, RBD coated

In order of rising EC50:
1. B14  0.8 ng/mL
2. B2  1.44 ng/mL
3. B16  1.83 ng/mL
4. B6  1.88 ng/mL
5. B19  1.88 ng/mL
6. B7  2.01 ng/mL
7. B15  2.14 ng/mL
8. B10  2.21 ng/mL
9. B17  2.23 ng/mL
10. B11  2.4 ng/mL
11. B5  2.48 ng/mL
12. B3  2.54 ng/mL
13. B12  2.88 ng/mL
14. B22  2.9 ng/mL
15. B4  3.2 ng/mL
16. B9  3.36 ng/mL
17. B18  3.39 ng/mL
18. B20  3.53 ng/mL
19. B1  3.73 ng/mL
20. B8  4.3 ng/mL
21. B21  7.6 ng/mL
22. B13  9.68 ng/mL
